The values below come from paper PMC4964339 (Scientific Reports, 2016).

In the assay the target is T1, human claudin-4 (residues 1-183), tag-free (human, UniProt O14493 1-183).
T1 construct: also called tag-free claudin-4
T1 sequence (looked up): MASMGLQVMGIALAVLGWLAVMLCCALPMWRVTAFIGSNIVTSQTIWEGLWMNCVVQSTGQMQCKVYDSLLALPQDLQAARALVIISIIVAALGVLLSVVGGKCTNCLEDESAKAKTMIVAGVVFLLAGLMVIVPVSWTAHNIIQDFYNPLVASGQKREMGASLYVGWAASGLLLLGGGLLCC
Nature of the assay: SPR. The note with it: both partners purified.

B1: GST-tagged C-CPE (C-terminal fragment of Clostridium perfringens enterotoxin, residues 185-319) (domain or fragment)
chain: RCVLTVPSTDIEKEILDLAAATERLNLTDALNSNPAGNLYDWRSSNSYPWTQKLNLHLTITATGQKYRILASKIVDFNIYSNNFNNLVKLEQSLGDGVKDHYVDISLDAGQYVLVMKANSSYSGNYPYSILFQKF
Regarding B1, the dissociation constant Kd worked out at 3.4 nM.
